B2: Fc-iNKG2D.YA (NKG2D ectodomain Y152A fused to the C-terminus of human IgG1 Fc) (Fc fusion)
chain: IEGRFLNSLFNQEVQIPLTESYCGPCPKNWICYKNNCYQFFDESKNWYESQASCMSQNASLLKVYSKEDQDLLKLVKSAHWMGLVHIPTNGSWQWEDGSILSPNLLTIIEMQKGDCALYASSFKGYIENCSTPNTYICMQRTV
notes: range 78-216; it is not tied by words to this Fc fusion; not shown: human IgG1 Fc

Tests used:
mouse NKG2D = molecular target: T1, mouse NKG2D (mouse, UniProt O54709 94-232, limits assumed); assay: ELISA on mouse NKG2D, absorbance against nM MicAbody
T1 construct: also called mouse wild-type NKG2D
T1 sequence (looked up): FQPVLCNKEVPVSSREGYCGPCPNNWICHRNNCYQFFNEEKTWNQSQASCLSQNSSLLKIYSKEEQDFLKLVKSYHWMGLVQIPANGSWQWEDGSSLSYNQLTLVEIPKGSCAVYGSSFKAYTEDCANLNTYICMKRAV

[1] = molecular target: B2; assay: Octet BLI; Fc-iNKG2D.YA captured on AHC tips, two-fold dilution series from 50 nM
Text: (§1) The y-axes corresponding to binding responses were set to the same scale for all sensograms.

[2] = molecular target: T2, Fc-wtNKG2D (wild-type NKG2D ectodomain fused to the C-terminus of human IgG1 Fc) (human, UniProt P26718 78-216); assay: Octet BLI; Fc-wtNKG2D captured on AHC tips, two-fold dilution series from 50 nM
T2 construct: range 78-216; Dimeric secreted protein from Expi293 cells; also called Fc-NKG2D; not shown: human IgG1 Fc
T2 sequence: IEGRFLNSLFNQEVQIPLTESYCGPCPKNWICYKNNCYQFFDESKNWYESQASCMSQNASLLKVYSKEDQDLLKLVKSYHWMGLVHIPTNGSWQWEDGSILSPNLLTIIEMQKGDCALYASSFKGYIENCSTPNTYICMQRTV
Text: as §1

[3] = molecular target: T3, A1-A2 domain of human MICB with C-terminal 6x-His tag (monomer) (human, UniProt Q29980 24-205); assay: Octet BLI; Fc-iNKG2D.YA captured on AHC tips, dilution series of His-tagged monomeric ligand
T3 construct: range 24-205; also called MIC-His ligand
T3 sequence: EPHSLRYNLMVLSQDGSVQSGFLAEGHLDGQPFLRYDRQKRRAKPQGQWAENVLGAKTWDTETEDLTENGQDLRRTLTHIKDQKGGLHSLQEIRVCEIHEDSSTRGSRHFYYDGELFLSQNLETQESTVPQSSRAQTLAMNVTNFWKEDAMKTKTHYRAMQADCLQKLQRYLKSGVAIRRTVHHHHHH
Text: (§2) Note that all axes are to the same scale (Binding-0 nm, 0.4 nm. 0.8 nm, 1.2 nm (y-axis); Time-0 s, 50 s, 100 s, 150 s, 200 s, 250 s, 300 s, 350 s (x-axis). Data is representative of a single experiment.

[4] = molecular target: T4, A1-A2 domain of human MICA*001 with C-terminal 6x-His tag (monomer) (human, UniProt Q29983 24-205); assay: as above
T4 construct: range 24-205; also called MIC-His ligand
T4 sequence: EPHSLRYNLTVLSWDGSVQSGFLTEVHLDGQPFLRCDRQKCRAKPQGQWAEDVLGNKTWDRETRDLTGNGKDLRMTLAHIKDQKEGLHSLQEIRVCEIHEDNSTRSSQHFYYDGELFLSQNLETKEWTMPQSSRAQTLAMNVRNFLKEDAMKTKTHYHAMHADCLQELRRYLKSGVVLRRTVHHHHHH
Text: as §2

[5] = molecular target: T5, A1-A2 domain of human ULBP3 with C-terminal 6x-His tag (monomer) (human, UniProt Q9BZM4 30-212); assay: as above
T5 construct: range 30-212; also called MIC-His ligand
T5 sequence: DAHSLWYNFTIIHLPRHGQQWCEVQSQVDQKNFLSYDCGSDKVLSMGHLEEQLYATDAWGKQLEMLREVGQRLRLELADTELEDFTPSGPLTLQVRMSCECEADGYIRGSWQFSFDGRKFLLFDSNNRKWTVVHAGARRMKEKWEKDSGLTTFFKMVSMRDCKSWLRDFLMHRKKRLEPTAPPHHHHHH
Text: as §2

[6] = molecular target: T6, His-tagged monomeric ULBP2 R81W (human, UniProt Q9BZM5 29-212); assay: as above
T6 construct: range 29-212; Construct limits are stated only for wild-type ULBP2-His; position 81 counts on the mature protein, not on the UniProt entry
T6 sequence: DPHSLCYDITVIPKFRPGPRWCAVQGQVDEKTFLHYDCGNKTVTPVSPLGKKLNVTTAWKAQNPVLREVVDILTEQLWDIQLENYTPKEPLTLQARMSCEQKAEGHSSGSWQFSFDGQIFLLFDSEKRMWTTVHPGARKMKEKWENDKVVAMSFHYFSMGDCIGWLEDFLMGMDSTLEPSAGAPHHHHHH
Text: YA. […] YA were captured with anti-human IgG Fc capture (AHC) biosensor tips then associated with a dilution series of ligand. Data are from single experiments.

MICA-Fc (R&D Systems) = molecular target: T7, MICA-Fc (R&D Systems) (human, UniProt Q29983 24-308, limits assumed); assay: ELISA; ligand-Fc coated, biotinylated Fc-iNKG2D.YA, streptavidin-HRP (legend: the Fc-NKG2D is titrated; axis on the sheet: nM ligand-Fc)
T7 construct: Bought; also called Ligand-Fc fusion; not shown: Fc of the bought fusion; not described
T7 sequence (looked up): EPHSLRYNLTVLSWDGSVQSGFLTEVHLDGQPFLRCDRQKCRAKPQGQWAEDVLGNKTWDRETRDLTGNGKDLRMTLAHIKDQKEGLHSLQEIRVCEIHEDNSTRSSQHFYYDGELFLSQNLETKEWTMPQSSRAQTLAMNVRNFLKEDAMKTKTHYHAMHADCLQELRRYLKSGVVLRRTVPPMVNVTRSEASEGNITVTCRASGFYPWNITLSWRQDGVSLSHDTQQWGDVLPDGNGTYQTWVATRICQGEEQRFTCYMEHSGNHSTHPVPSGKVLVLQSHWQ

ULBP1-Fc (R&D Systems) = molecular target: T8, ULBP1-Fc (R&D Systems) (human, UniProt Q9BZM6 26-216); assay: as above
T8 construct: Bought; also called Ligand-Fc fusion; not shown: Fc of the bought fusion; not described
T8 sequence (looked up): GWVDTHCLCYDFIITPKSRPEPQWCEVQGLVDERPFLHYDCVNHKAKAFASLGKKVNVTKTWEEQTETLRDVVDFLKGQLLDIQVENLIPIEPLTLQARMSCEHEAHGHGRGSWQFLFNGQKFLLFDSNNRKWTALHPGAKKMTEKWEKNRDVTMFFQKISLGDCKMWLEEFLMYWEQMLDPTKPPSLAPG

ULBP3-Fc (R&D Systems) = molecular target: T9, ULBP3-Fc (R&D Systems) (human, UniProt Q9BZM4 30-217); assay: as above
T9 construct: Bought; also called Ligand-Fc fusion; not shown: Fc of the bought fusion; not described
T9 sequence (looked up): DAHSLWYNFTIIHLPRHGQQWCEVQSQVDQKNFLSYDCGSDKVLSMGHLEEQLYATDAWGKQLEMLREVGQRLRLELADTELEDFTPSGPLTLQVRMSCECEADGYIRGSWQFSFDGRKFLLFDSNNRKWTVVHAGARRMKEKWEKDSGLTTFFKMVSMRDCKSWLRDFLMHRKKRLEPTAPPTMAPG

ULBP2-Fc (R&D Systems) = molecular target: T10, ULBP2-Fc (R&D Systems) (human, UniProt Q9BZM5 26-217); assay: as above
T10 construct: Bought; also called Ligand-Fc fusion; not shown: Fc of the bought fusion; not described
T10 sequence (looked up): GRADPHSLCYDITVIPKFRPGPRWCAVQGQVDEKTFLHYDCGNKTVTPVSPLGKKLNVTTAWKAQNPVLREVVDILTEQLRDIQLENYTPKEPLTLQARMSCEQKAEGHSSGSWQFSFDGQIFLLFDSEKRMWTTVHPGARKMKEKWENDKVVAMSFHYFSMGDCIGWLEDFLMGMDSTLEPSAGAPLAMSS

ULBP4-Fc (R&D Systems) = molecular target: T11, ULBP4-Fc (R&D Systems) (human, UniProt Q8TD07 31-225, limits assumed); assay: as above
T11 construct: Bought; also called Ligand-Fc fusion; not shown: Fc of the bought fusion; not described
T11 sequence (looked up): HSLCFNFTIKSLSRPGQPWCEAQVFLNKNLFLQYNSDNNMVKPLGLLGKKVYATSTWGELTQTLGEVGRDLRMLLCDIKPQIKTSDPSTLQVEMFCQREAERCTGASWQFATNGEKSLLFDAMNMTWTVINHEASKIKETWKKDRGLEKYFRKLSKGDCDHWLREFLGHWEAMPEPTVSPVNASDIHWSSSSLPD

MICB-Fc (R&D Systems) = molecular target: T12, MICB-Fc (R&D Systems) (human, UniProt Q29980 23-298, limits assumed); assay: as above
T12 construct: Bought; also called Ligand-Fc fusion; not shown: Fc of the bought fusion; not described
T12 sequence (looked up): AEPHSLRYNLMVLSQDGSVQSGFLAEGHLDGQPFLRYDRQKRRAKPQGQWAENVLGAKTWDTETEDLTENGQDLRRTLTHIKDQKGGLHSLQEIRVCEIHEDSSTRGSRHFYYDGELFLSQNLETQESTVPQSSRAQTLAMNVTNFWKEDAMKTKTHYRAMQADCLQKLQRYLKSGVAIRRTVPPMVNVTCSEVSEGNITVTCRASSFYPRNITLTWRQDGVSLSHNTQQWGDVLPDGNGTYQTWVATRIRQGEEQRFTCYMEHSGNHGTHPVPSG

[7] = molecular target: T2, Fc-wtNKG2D (wild-type NKG2D ectodomain …); assay: Octet BLI; Fc-wtNKG2D captured on AHC tips, two-fold dilution series of MicAbody from 50 nM
Text: as §1

[8] = molecular target: B2; assay: Octet BLI; Fc-iNKG2D.YA captured on AHC tips, two-fold dilution series of MicAbody from 50 nM
Text: as §1

B1: Rituximab (antibody, V domains shown)
VH: QVQLQQPGAELVKPGASVKMSCKASGYTFTSYNMHWVKQTPGRGLEWIGAIYPGNGDTSYNQKFKGKATLTADKSSSTAYMQLSSLTSEDSAVYYCARSTYYGGDWYFNVWGAGTTVTVSA
VL: QIVLSQSPAILSASPGEKVTMTCRASSSVSYIHWFQQKPGSSPKPWIYATSNLASGVPVRFSGSGSGTSYSLTISRVEAEDAATYYCQQWTSNPPTFGGGTKLEIKR
notes: also called Rituximab (ADCC-); Rituxumab (ADCC); copies: 2 + 2
B1: no binding (tested: about 300 nM) (mouse NKG2D); no binding (tested: 50 nM (legend)) [1]; no binding (tested: 50 nM (legend)) [2].

B2: no binding (tested: 0.3 uM) [3]; no binding (tested: 1.2 uM) [4]; no binding (tested: 1.2 uM) [5]. The Kd [6] was 3.6 µM, the binding result (MICA-Fc (R&D Systems)) was “no binding (tested: 2000 nM)” and the binding result (ULBP1-Fc (R&D Systems)) was “no binding (tested: 2000 nM)”. B2: no binding (tested: 2000 nM) (ULBP3-Fc (R&D Systems)); no binding (tested: 2000 nM) (ULBP2-Fc (R&D Systems)); no binding (tested: 2000 nM) (ULBP4-Fc (R&D Systems)). B2: no binding (tested: 2000 nM) (MICB-Fc (R&D Systems)).

B3: Rituximab.HC-U2S3 MicAbody (U2S3 A1-A2 domain fused to the C-terminus of the rituximab heavy chain) (bispecific antibody, IgG1)
heavy (part 1 of 2): QVQLQQPGAELVKPGASVKMSCKASGYTFTSYNMHWVKQTPGRGLEWIGAIYPGNGDTSYNQKFKGKATLTADKSSSTAYMQLSSLTSEDSAVYYCARSTYYGGDWYFNVWGAGTTVTVSAA
heavy (part 2 of 2): GGGSEPHSLSYDITVIPKFRPGPRWCAVQGQVDEKTFLHYDCGQKTVTPVSPLGKKLQVTTAWKAQNPVLREVVDILTEQLWDIQLENYTPKEPLTLQARMSCEQKAEGHSSGSWQFSFDGQIFLLFDSEKRMWTTVHPGARKMKEKWENDKVVATKLYLWSMGDCIGWLEDFLMGMDSTLEPS
light: QIVLSQSPAILSASPGEKVTMTCRASSSVSYIHWFQQKPGSSPKPWIYATSNLASGVPVRFSGSGSGTSYSLTISRVEAEDAATYYCQQWTSNPPTFGGGTKLEIK
notes: IgG1 kappa, D265A/N297A; also called HC-fused MicAbody; Rit.HCd.S3; not shown: human IgG1 heavy-chain constant region, ADCC-deficient; human kappa light-chain constant region
For B3, the binding result [7] was “no binding (tested: 50 nM (legend))” and the Kd [8] was 23 pM.
